Experimental data as given in patent publication US20120329986A1 (UNIVERSITE DE MONTREAL, published 2012).
Square brackets hold non-standard residues; d marks the D form. Ends that are not written are not given here. dTrp(2-Me) = Cc1[nH]c2ccccc2c1C[C@@H](N)C(=O)O; HAIC = not defined here

Target: CD36 receptor (in the src-kinase cellular assay)
Experiment: cell-based or functional assay

## [HAIC][dTrp(2-Me)][dK]W[dF]K-NH2 (reading uncertain) [EP80317]
  SRC-kinase cellular assay EC50: 26 nM
